B1: SETD8 (parent)
chain: FVVEYHGDLIEITDAKKREALYAQ
B2: GLTSCR2 (parent)
chain: LARRRRRRQARREAEADKPRRLGR
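Note: lentivirally expressed fusions sorted by FACS into six bins by GFP to DsRed ratio, PSI derived from sequencing read proportions per bin multiplied by bin number.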

Variants of: B1
Assay: protein stability index of a GFP-peptide fusion (GPS, HEK-293T) (PSI 1-6); higher = more stable
Conditions: c terminus: a fixed tail appended
With FVVEYHGDLIEITDAKKRENLYAQ the protein stability index was 1.7. FVVEYHGDLIEITDAKKREPLYAQ gave a protein stability index of 1.08. Work on FVVEYHGDLIEITDAKKREQLYAQ yielded a protein stability index of 1.78. For FVVEYHGDLIEITDAKKRERLYAQ, the protein stability index was 1.68. For FVVEYHGDLIEITDAKKRESLYAQ, the protein stability index was 2.3. Work on FVVEYHGDLIEITDAKKRETLYAQ yielded a protein stability index of 2.06. FVVEYHGDLIEITDAKKREVLYAQ gave a protein stability index of 1.97. With FVVEYHGDLIEITDAKKREWLYAQ the protein stability index was 1.47. Work on FVVEYHGDLIEITDAKKREYLYAQ yielded a protein stability index of 1.71. In the case of FVVEYHGDLIEITDAKKREAAYAQ, the protein stability index is reported as 2.01. With FVVEYHGDLIEITDAKKREACYAQ the protein stability index was 1.82. Work on FVVEYHGDLIEITDAKKREADYAQ yielded a protein stability index of 2.52. FVVEYHGDLIEITDAKKREAEYAQ gave a protein stability index of 2.88. With FVVEYHGDLIEITDAKKREAFYAQ the protein stability index was 1.73. Work on FVVEYHGDLIEITDAKKREAGYAQ yielded a protein stability index of 2.05. Variant FVVEYHGDLIEITDAKKREAHYAQ has a protein stability index of 2.79. FVVEYHGDLIEITDAKKREAIYAQ showed a protein stability index of 1.36. For FVVEYHGDLIEITDAKKREAKYAQ, the protein stability index was 2.38. FVVEYHGDLIEITDAKKREAMYAQ gave a protein stability index of 1.7. For FVVEYHGDLIEITDAKKREANYAQ, the protein stability index was 1.81. Work on FVVEYHGDLIEITDAKKREAPYAQ yielded a protein stability index of 3.09. Variant FVVEYHGDLIEITDAKKREAQYAQ has a protein stability index of 2.21. FVVEYHGDLIEITDAKKREARYAQ gave a protein stability index of 1.39. In the case of FVVEYHGDLIEITDAKKREASYAQ, the protein stability index is reported as 2.36. FVVEYHGDLIEITDAKKREATYAQ showed a protein stability index of 1.94. In the case of FVVEYHGDLIEITDAKKREAVYAQ, the protein stability index is reported as 1.91. FVVEYHGDLIEITDAKKREAWYAQ showed a protein stability index of 2.22. For FVVEYHGDLIEITDAKKREAYYAQ, the protein stability index was 1.97. FVVEYHGDLIEITDAKKREALCAQ showed a protein stability index of 2.13. Variant FVVEYHGDLIEITDAKKREALDAQ has a protein stability index of 2.21. FVVEYHGDLIEITDAKKREALEAQ gave a protein stability index of 2.6. With FVVEYHGDLIEITDAKKREALFAQ the protein stability index was 1.79. Variant FVVEYHGDLIEITDAKKREALGAQ has a protein stability index of 1.43. For FVVEYHGDLIEITDAKKREALHAQ, the protein stability index was 1.84. With FVVEYHGDLIEITDAKKREALIAQ the protein stability index was 1.94. FVVEYHGDLIEITDAKKREALKAQ gave a protein stability index of 2.88. FVVEYHGDLIEITDAKKREALLAQ showed a protein stability index of 1.47. FVVEYHGDLIEITDAKKREALMAQ gave a protein stability index of 2.95. In the case of FVVEYHGDLIEITDAKKREALNAQ, the protein stability index is reported as 3.26. FVVEYHGDLIEITDAKKREALPAQ gave a protein stability index of 2.29. In the case of FVVEYHGDLIEITDAKKREALQAQ, the protein stability index is reported as 2.06. FVVEYHGDLIEITDAKKREALRAQ gave a protein stability index of 1.99. Work on FVVEYHGDLIEITDAKKREALSAQ yielded a protein stability index of 1.68. FVVEYHGDLIEITDAKKREALTAQ showed a protein stability index of 1.76. FVVEYHGDLIEITDAKKREALVAQ showed a protein stability index of 2.08. With FVVEYHGDLIEITDAKKREALWAQ the protein stability index was 1.56. In the case of FVVEYHGDLIEITDAKKREALYCQ, the protein stability index is reported as 1.29. FVVEYHGDLIEITDAKKREALYDQ gave a protein stability index of 1.79. In the case of FVVEYHGDLIEITDAKKREALYEQ, the protein stability index is reported as 1.84. For FVVEYHGDLIEITDAKKREALYFQ, the protein stability index was 2.57. For FVVEYHGDLIEITDAKKREALYGQ, the protein stability index was 1.13. With FVVEYHGDLIEITDAKKREALYHQ the protein stability index was 2.1. In the case of FVVEYHGDLIEITDAKKREALYIQ, the protein stability index is reported as 1.6. FVVEYHGDLIEITDAKKREALYKQ showed a protein stability index of 2.17. Work on FVVEYHGDLIEITDAKKREALYLQ yielded a protein stability index of 2.36. Variant FVVEYHGDLIEITDAKKREALYMQ has a protein stability index of 1.83. Work on FVVEYHGDLIEITDAKKREALYNQ yielded a protein stability index of 1.69. Work on FVVEYHGDLIEITDAKKREALYPQ yielded a protein stability index of 1.89. With FVVEYHGDLIEITDAKKREALYQQ the protein stability index was 1.85. In the case of FVVEYHGDLIEITDAKKREALYRQ, the protein stability index is reported as 2.3. In the case of FVVEYHGDLIEITDAKKREALYSQ, the protein stability index is reported as 1.92. In the case of FVVEYHGDLIEITDAKKREALYTQ, the protein stability index is reported as 2.21. With FVVEYHGDLIEITDAKKREALYVQ the protein stability index was 1.65. For FVVEYHGDLIEITDAKKREALYWQ, the protein stability index was 2.12. For FVVEYHGDLIEITDAKKREALYYQ, the protein stability index was 1.3. In the case of FVVEYHGDLIEITDAKKREALYAA, the protein stability index is reported as 2.5. With FVVEYHGDLIEITDAKKREALYAC the protein stability index was 1.35. FVVEYHGDLIEITDAKKREALYAD gave a protein stability index of 1.77. FVVEYHGDLIEITDAKKREALYAE gave a protein stability index of 1.86. In the case of FVVEYHGDLIEITDAKKREALYAF, the protein stability index is reported as 1.5. Work on FVVEYHGDLIEITDAKKREALYAG yielded a protein stability index of 1.37. Work on FVVEYHGDLIEITDAKKREALYAH yielded a protein stability index of 1.64. FVVEYHGDLIEITDAKKREALYAI gave a protein stability index of 1.75. Variant FVVEYHGDLIEITDAKKREALYAK has a protein stability index of 1.86. Work on FVVEYHGDLIEITDAKKREALYAL yielded a protein stability index of 1.51. In the case of FVVEYHGDLIEITDAKKREALYAM, the protein stability index is reported as 1.75. FVVEYHGDLIEITDAKKREALYAN gave a protein stability index of 1.71. FVVEYHGDLIEITDAKKREALYAP gave a protein stability index of 2.05. In the case of FVVEYHGDLIEITDAKKREALYAR, the protein stability index is reported as 2.89. Variant FVVEYHGDLIEITDAKKREALYAS has a protein stability index of 1.6. In the case of FVVEYHGDLIEITDAKKREALYAT, the protein stability index is reported as 2.09. Work on FVVEYHGDLIEITDAKKREALYAV yielded a protein stability index of 1.85. For FVVEYHGDLIEITDAKKREALYAW, the protein stability index was 1.63. With FVVEYHGDLIEITDAKKREALYAY the protein stability index was 1.32.

Variants of: B2
Assay: as above
Conditions: c terminus: a fixed tail appended
Work on AARRRRRRQARREAEADKPRRLGR yielded a protein stability index of 5.29. CARRRRRRQARREAEADKPRRLGR gave a protein stability index of 5.39. Variant DARRRRRRQARREAEADKPRRLGR has a protein stability index of 5.28. With EARRRRRRQARREAEADKPRRLGR the protein stability index was 5.22. Work on FARRRRRRQARREAEADKPRRLGR yielded a protein stability index of 4.4. In the case of GARRRRRRQARREAEADKPRRLGR, the protein stability index is reported as 5.13. With HARRRRRRQARREAEADKPRRLGR the protein stability index was 5.28. In the case of IARRRRRRQARREAEADKPRRLGR, the protein stability index is reported as 4.9. Variant KARRRRRRQARREAEADKPRRLGR has a protein stability index of 4.56. MARRRRRRQARREAEADKPRRLGR gave a protein stability index of 4.75.

From the supplement of paper PMC10567573
